The source of these data is article PMC2859563.

This series addresses T1, SmcR (Vibrio vulnificus, UniProt Q9L8G8 1-205).
T1 sequence: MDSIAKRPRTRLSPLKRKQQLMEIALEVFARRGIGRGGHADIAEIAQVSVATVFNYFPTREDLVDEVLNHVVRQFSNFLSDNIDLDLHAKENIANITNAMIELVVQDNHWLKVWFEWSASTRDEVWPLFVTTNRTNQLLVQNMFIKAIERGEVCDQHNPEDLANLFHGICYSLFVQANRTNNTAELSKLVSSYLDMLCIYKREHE
Kind of series: ITC.

B1: PvvpE (dsDNA)
DNA 1: ATCTTATTGATAAATCTGCGTAAAAAA
DNA 2: TTTTTTACGCAGATTTATCAATAAGAT
By Kd is commonly meant the constant that tells how readily two partners part at equilibrium. Low values mean tighter binding, high ones weaker binding. Consider B1, for which the Kd is 2800 nM.

B2: PvvpE-mod (dsDNA)
DNA 1: TTCTTATTGATAAATTTGTGAATAAAA
DNA 2: TTTTATTCACAAATTTATCAATAAGAA
On to B2, for which the Kd stood at 76 nM.
